Measured values: article PMC4301630, “Dynamic Growth and Shrinkage Govern the pH Dependence of RecA Filament Stability” (PLoS ONE, 2015)

Molecular target: the molecule itself
Experiment: single-molecule FRET (Cy3 and Cy5 on the DNA, TIRF microscopy); partial duplex DNA with a 60 nt 3' single-stranded overhang immobilised on a PEG-coated quartz slide; dyes 10 nt apart at the 5' side of the overhang report monomers joining and leaving the 5' end of the RecA filament; 1 uM RecA (0.5 uM RecAΔC17), 1 mM ATP, 10 mM Mg(OAc)2, 100 mM NaOAc, 10 mM Tris-OAc, Mes or Mops, pH 6.0 to 8.0, room temperature; …

B1: RecA protein (wild type) (natural protein, UniProt P0A7G6 1-353, looked up)
chain: MAIDENKQKALAAALGQIEKQFGKGSIMRLGEDRSMDVETISTGSLSLDIALGAGGLPMGRIVEIYGPESSGKTTLTLQVIAAAQREGKTCAFIDAEHALDPIYARKLGVDIDNLLCSQPDTGEQALEICDALARSGAVDVIVVDSVAALTPKAEIEGEIGDSHMGLAARMMSQAMRKLAGNLKQSNTLLIFINQIRMKIGVMFGNPETTTGGNALKFYASVRLDIRRIGAVKEGENVVGSETRVKVVKNKIAAPFKQAEFQILYGEGINFYGELVDLGVKEKLIEKAGAWYSYKGEKIGQGKANATAWLKDNPETAKEIEKKVRELLLSNPNSTPDFSVDDSEGVAETNEDF
notes: RecA protein, wild type, bought from New England Biolabs; Forms helical filaments of many monomers on single-stranded DNA with ATP or ATPγS; the number of copies in the filament is not fixed; also called wild type RecA; source: bought: New England Biolabs, used without further purification
Does B1 bind?
Result: binds
